From US20220119549A1 (TAVOTEK BIOTHERAPEUTICS HONG KONG, published 2022) come the findings set out here.

Sequences and labels used below:
B1: TAVO198199 (antibody, human IgG1, kappa)
heavy: GIVEECCFRSCDLALLETYCAGGGGSLSGRSDNHGGGGSEVQLVESGGGLVQPGGSLRLSCAASGFDFADYAMHWVRQAPGKGLEWVSAITWNGGHTDYADSVKGRFTISRDNSKNTLYLQMNSLRAEDTAVYYCAKVSYLSTASSLDYWGQGTLVTVSSASTKGPSVFPLAPSSKSTSGGTAALGCLVKDYFPEPVTVSWNSGALTSGVHTFPAVLQSSGLYSLSSVVTVPSSSLGTQTYICNVNHKPSNTKVDKKVEPKSCDKTHTCPPCPAPPAAGPSVFLFPPKPKDTLMISRTPEVTCVVVDVSHEDPEVKFNWYVDGVEVHNAKTKPREEQYNSTYRVVSVLTVLHQDWLNGKEYKCKVSNKALPAPIEKTISKAKGQPREPQVYTLPPSRDELTKNQVSLTCLVKGFYPSDIAVEWESNGQPENNYKTTPPVLDSDGSFLLYSKLTVDKSRWQQGNVFSCSVLHEALHSHYTQKSLSLSPGK
light: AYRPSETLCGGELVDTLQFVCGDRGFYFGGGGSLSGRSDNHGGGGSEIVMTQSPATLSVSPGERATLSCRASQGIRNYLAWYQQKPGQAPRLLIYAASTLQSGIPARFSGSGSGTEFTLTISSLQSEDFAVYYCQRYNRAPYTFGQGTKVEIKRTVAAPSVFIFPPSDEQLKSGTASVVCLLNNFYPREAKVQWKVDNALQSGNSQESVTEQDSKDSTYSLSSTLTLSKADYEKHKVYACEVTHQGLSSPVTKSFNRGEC
notes: also called anti-TNFα shielded antibody with IGF2-based masking domain; EAC198/EAC199
B2: TAVO186187 after digestion by MMP2 (antibody)
heavy: EVQLVESGGGLVQPGGSLRLSCAASGFDFADYAMHWVRQAPGKGLEWVSAITWNGGHTDYADSVKGRFTISRDNSKNTLYLQMNSLRAEDTAVYYCAKVSYLSTASSLDYWGQGTLVTVSSASTKGPSVFPLAPSSKSTSGGTAALGCLVKDYFPEPVTVSWNSGALTSGVHTFPAVLQSSGLYSLSSVVTVPSSSLGTQTYICNVNHKPSNTKVDKKVEPKSCDKTHTCPPCPAPPAAGPSVFLFPPKPKDTLMISRTPEVTCVVVDVSHEDPEVKFNWYVDGVEVHNAKTKPREEQYNSTYRVVSVLTVLHQDWLNGKEYKCKVSNKALPAPIEKTISKAKGQPREPQVYTLPPSRDELTKNQVSLTCLVKGFYPSDIAVEWESNGQPENNYKTTPPVLDSDGSFLLYSKLTVDKSRWQQGNVFSCSVLHEALHSHYTQKSLSLSPGK
light: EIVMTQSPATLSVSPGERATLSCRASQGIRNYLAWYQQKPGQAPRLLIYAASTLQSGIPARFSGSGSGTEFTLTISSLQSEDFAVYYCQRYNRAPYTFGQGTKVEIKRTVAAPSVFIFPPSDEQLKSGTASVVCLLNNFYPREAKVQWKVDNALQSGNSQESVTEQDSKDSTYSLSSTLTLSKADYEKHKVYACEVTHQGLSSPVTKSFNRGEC
notes: also called digested shielded antibody; digested TAVO186187; not shown: remnant of the protease-cleavable linker left after cleavage
B3: TAVO192193 after digestion by MMP2 (antibody)
heavy: EVQLVESGGGLVQPGGSLRLSCAASGFDFADYAMHWVRQAPGKGLEWVSAITWNGGHTDYADSVKGRFTISRDNSKNTLYLQMNSLRAEDTAVYYCAKVSYLSTASSLDYWGQGTLVTVSSASTKGPSVFPLAPSSKSTSGGTAALGCLVKDYFPEPVTVSWNSGALTSGVHTFPAVLQSSGLYSLSSVVTVPSSSLGTQTYICNVNHKPSNTKVDKKVEPKSCDKTHTCPPCPAPPAAGPSVFLFPPKPKDTLMISRTPEVTCVVVDVSHEDPEVKFNWYVDGVEVHNAKTKPREEQYNSTYRVVSVLTVLHQDWLNGKEYKCKVSNKALPAPIEKTISKAKGQPREPQVYTLPPSRDELTKNQVSLTCLVKGFYPSDIAVEWESNGQPENNYKTTPPVLDSDGSFLLYSKLTVDKSRWQQGNVFSCSVLHEALHSHYTQKSLSLSPGK
light: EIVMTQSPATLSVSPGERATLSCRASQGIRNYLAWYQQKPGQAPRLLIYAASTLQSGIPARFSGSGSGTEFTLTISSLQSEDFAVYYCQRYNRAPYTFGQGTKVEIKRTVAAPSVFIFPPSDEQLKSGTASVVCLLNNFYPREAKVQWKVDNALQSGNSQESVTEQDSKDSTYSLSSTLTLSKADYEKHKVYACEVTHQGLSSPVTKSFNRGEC
notes: also called digested shielded antibody; digested TAVO192193; not shown: remnant of the protease-cleavable linker left after cleavage
B4: TAVO190191 after digestion by MMP2 (antibody)
heavy: EVQLVESGGGLVQPGGSLRLSCAASGFDFADYAMHWVRQAPGKGLEWVSAITWNGGHTDYADSVKGRFTISRDNSKNTLYLQMNSLRAEDTAVYYCAKVSYLSTASSLDYWGQGTLVTVSSASTKGPSVFPLAPSSKSTSGGTAALGCLVKDYFPEPVTVSWNSGALTSGVHTFPAVLQSSGLYSLSSVVTVPSSSLGTQTYICNVNHKPSNTKVDKKVEPKSCDKTHTCPPCPAPPAAGPSVFLFPPKPKDTLMISRTPEVTCVVVDVSHEDPEVKFNWYVDGVEVHNAKTKPREEQYNSTYRVVSVLTVLHQDWLNGKEYKCKVSNKALPAPIEKTISKAKGQPREPQVYTLPPSRDELTKNQVSLTCLVKGFYPSDIAVEWESNGQPENNYKTTPPVLDSDGSFLLYSKLTVDKSRWQQGNVFSCSVLHEALHSHYTQKSLSLSPGK
light: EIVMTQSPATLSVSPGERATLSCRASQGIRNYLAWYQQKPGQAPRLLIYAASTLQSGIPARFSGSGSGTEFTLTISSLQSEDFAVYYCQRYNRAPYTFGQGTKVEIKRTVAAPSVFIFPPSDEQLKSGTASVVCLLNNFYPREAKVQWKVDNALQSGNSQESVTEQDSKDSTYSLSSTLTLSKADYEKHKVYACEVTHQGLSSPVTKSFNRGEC
notes: also called digested shielded antibody; digested TAVO190191; not shown: remnant of the protease-cleavable linker left after cleavage
B5: TAVO194195 after digestion by MMP2 (antibody)
heavy: EVQLVESGGGLVQPGGSLRLSCAASGFDFADYAMHWVRQAPGKGLEWVSAITWNGGHTDYADSVKGRFTISRDNSKNTLYLQMNSLRAEDTAVYYCAKVSYLSTASSLDYWGQGTLVTVSSASTKGPSVFPLAPSSKSTSGGTAALGCLVKDYFPEPVTVSWNSGALTSGVHTFPAVLQSSGLYSLSSVVTVPSSSLGTQTYICNVNHKPSNTKVDKKVEPKSCDKTHTCPPCPAPPAAGPSVFLFPPKPKDTLMISRTPEVTCVVVDVSHEDPEVKFNWYVDGVEVHNAKTKPREEQYNSTYRVVSVLTVLHQDWLNGKEYKCKVSNKALPAPIEKTISKAKGQPREPQVYTLPPSRDELTKNQVSLTCLVKGFYPSDIAVEWESNGQPENNYKTTPPVLDSDGSFLLYSKLTVDKSRWQQGNVFSCSVLHEALHSHYTQKSLSLSPGK
light: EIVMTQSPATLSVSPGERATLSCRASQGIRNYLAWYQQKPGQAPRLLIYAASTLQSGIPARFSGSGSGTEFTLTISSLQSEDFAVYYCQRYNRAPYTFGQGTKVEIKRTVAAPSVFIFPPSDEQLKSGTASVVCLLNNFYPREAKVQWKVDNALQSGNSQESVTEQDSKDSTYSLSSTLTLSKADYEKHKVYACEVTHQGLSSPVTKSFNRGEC
notes: also called digested shielded antibody; digested TAVO194195; not shown: remnant of the protease-cleavable linker left after cleavage
B6: TAVO188189 after digestion by MMP2 (antibody)
heavy: EVQLVESGGGLVQPGGSLRLSCAASGFDFADYAMHWVRQAPGKGLEWVSAITWNGGHTDYADSVKGRFTISRDNSKNTLYLQMNSLRAEDTAVYYCAKVSYLSTASSLDYWGQGTLVTVSSASTKGPSVFPLAPSSKSTSGGTAALGCLVKDYFPEPVTVSWNSGALTSGVHTFPAVLQSSGLYSLSSVVTVPSSSLGTQTYICNVNHKPSNTKVDKKVEPKSCDKTHTCPPCPAPPAAGPSVFLFPPKPKDTLMISRTPEVTCVVVDVSHEDPEVKFNWYVDGVEVHNAKTKPREEQYNSTYRVVSVLTVLHQDWLNGKEYKCKVSNKALPAPIEKTISKAKGQPREPQVYTLPPSRDELTKNQVSLTCLVKGFYPSDIAVEWESNGQPENNYKTTPPVLDSDGSFLLYSKLTVDKSRWQQGNVFSCSVLHEALHSHYTQKSLSLSPGK
light: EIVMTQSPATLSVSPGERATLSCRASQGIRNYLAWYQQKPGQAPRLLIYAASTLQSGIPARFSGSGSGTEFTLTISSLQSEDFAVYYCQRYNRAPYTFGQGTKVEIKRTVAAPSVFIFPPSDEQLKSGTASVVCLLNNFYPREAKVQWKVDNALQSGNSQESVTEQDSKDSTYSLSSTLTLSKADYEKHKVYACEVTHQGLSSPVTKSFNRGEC
notes: also called digested shielded antibody; digested TAVO188189; not shown: remnant of the protease-cleavable linker left after cleavage
B7: TAVO198199 after digestion by uPA (antibody)
heavy: EVQLVESGGGLVQPGGSLRLSCAASGFDFADYAMHWVRQAPGKGLEWVSAITWNGGHTDYADSVKGRFTISRDNSKNTLYLQMNSLRAEDTAVYYCAKVSYLSTASSLDYWGQGTLVTVSSASTKGPSVFPLAPSSKSTSGGTAALGCLVKDYFPEPVTVSWNSGALTSGVHTFPAVLQSSGLYSLSSVVTVPSSSLGTQTYICNVNHKPSNTKVDKKVEPKSCDKTHTCPPCPAPPAAGPSVFLFPPKPKDTLMISRTPEVTCVVVDVSHEDPEVKFNWYVDGVEVHNAKTKPREEQYNSTYRVVSVLTVLHQDWLNGKEYKCKVSNKALPAPIEKTISKAKGQPREPQVYTLPPSRDELTKNQVSLTCLVKGFYPSDIAVEWESNGQPENNYKTTPPVLDSDGSFLLYSKLTVDKSRWQQGNVFSCSVLHEALHSHYTQKSLSLSPGK
light: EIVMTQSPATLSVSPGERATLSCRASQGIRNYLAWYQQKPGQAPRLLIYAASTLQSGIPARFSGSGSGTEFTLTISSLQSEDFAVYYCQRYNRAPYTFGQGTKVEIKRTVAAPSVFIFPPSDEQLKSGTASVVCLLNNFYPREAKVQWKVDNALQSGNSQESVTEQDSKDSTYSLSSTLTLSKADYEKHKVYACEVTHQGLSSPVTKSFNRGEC
notes: also called digested shielded antibody; digested TAVO198199; not shown: remnant of the protease-cleavable linker left after cleavage
B8: TAVO196197 after digestion by MMP3 (antibody)
heavy: EVQLVESGGGLVQPGGSLRLSCAASGFDFADYAMHWVRQAPGKGLEWVSAITWNGGHTDYADSVKGRFTISRDNSKNTLYLQMNSLRAEDTAVYYCAKVSYLSTASSLDYWGQGTLVTVSSASTKGPSVFPLAPSSKSTSGGTAALGCLVKDYFPEPVTVSWNSGALTSGVHTFPAVLQSSGLYSLSSVVTVPSSSLGTQTYICNVNHKPSNTKVDKKVEPKSCDKTHTCPPCPAPPAAGPSVFLFPPKPKDTLMISRTPEVTCVVVDVSHEDPEVKFNWYVDGVEVHNAKTKPREEQYNSTYRVVSVLTVLHQDWLNGKEYKCKVSNKALPAPIEKTISKAKGQPREPQVYTLPPSRDELTKNQVSLTCLVKGFYPSDIAVEWESNGQPENNYKTTPPVLDSDGSFLLYSKLTVDKSRWQQGNVFSCSVLHEALHSHYTQKSLSLSPGK
light: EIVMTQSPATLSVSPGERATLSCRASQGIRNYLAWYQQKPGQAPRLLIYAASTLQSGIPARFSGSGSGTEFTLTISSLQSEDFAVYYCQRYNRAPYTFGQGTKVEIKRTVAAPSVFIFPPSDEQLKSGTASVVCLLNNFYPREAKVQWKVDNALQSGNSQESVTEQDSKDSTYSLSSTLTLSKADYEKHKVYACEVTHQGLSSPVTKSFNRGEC
notes: also called digested shielded antibody; digested TAVO196197; not shown: remnant of the protease-cleavable linker left after cleavage

T1 sequence (P01375 77-233 limits assumed): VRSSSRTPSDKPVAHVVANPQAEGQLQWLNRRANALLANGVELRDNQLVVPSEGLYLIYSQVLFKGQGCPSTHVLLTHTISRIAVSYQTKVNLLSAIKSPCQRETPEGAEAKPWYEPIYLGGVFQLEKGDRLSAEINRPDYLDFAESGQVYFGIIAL

One test addresses T1, recombinant human TNFα (human, UniProt P01375 77-233). The test is described as follows: cell-based or functional assay.
As to B1, the “HEK-Blue TNFα reporter assay: potency in blocking TNFα functional activity, fold lower than TAVO167127” value is approximately 50 fold.

A further test concerns the target T1, recombinant human TNFα. The test is described as follows: ELISA, recombinant human TNFα coated at 1 µg/mL, after protease cleavage. As for the experimental part:
(§1) In this assay, 1 μg/mL recombinant human TNFα (R&D systems) was coated on an ELISA plate. Increasing concentrations of anti-TNFα shielded antibodies were applied on the plate and their binding to the recombinant human TNFα was detected by HRP-conjugated anti-human secondary antibody.
A general note: ELISA stands for enzyme-linked immunosorbent assay.
For B2, the binding result was “binds”.
Still for that read-out and setting: then B3, with “binds”; and B4, with “binds”; and B5, with “binds”.
Take B6: the binding result is on record as “binds”.
Consider B7, for which the binding result is listed as “binds”.
In the case of B8, the binding result is “binds”.

In another test the target is T1, recombinant human TNFα. Put plainly: ELISA, recombinant human TNFα coated at 1 µg/mL, HRP anti-human secondary. The method, then:
as §1
B1: the “fold lower binding affinity than TAVO167127” value is not below 5 fold.
